The target of this assay is T1, Saccharomyces cerevisiae eIF4E (S. cerevisiae, UniProt P07260 1-213, ^15N labeled).
T1 construct: eIF4E of Saccharomyces cerevisiae; source: E. coli BL21-star, purified (nickel resin, TEV cleavage, m^7G cap resin)
T1 sequence (looked up): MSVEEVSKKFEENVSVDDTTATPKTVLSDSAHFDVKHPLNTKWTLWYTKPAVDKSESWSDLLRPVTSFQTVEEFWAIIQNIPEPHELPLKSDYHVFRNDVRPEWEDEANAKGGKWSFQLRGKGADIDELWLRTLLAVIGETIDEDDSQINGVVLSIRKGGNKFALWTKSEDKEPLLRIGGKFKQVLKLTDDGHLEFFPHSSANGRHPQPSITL
The assay is described as follows: NMR titration; ^15N HSQC of 200 μM ^15N S. cerevisiae eIF4E with 250 μM m^7GTP; peptide added to 1 mM; 50 mM phosphate pH 6.5, 50 mM KCl, 298 K, 900 MHz. To be noted: both partners purified.

B1: 4E-BP1 peptide (amino acids 51–67) (peptide)
peptide: RIIYDRKFLMECRNSPV
notes: human 4E-BP1, amino acids 51–67; also called human 4E-BP1 amino acids 51–67; source: synthetic peptide (Elim Bio)
For the molecule B1, the binding result is recorded as “binds”.
